Laboratory results reported in patent US20140087995A1 (published 2014).
Numbered stars: 1 amine (or outer) side, 2 acyl side, 3 side chain; on linkers, the order of the positions; unused ones are H or OH. Bridge positions count the residues as written; N and C are the ends. Side chains are listed from the residue outwards. Ends that are not written are not given here. * marks the point of attachment. C20 diacid = O=C(O)CCCCCCCCCCCCCCCCCCC(=O)*; γGlu = O=C(O)[C@H](CCC(=O)[*:2])N[*:1]

T1: human amylin 3(a) receptor (human calcitonin receptor co-expressed with RAMP-3) (human, UniProt P30988 25-474; O60896 24-148, limits assumed)
T1 sequence (looked up) 1: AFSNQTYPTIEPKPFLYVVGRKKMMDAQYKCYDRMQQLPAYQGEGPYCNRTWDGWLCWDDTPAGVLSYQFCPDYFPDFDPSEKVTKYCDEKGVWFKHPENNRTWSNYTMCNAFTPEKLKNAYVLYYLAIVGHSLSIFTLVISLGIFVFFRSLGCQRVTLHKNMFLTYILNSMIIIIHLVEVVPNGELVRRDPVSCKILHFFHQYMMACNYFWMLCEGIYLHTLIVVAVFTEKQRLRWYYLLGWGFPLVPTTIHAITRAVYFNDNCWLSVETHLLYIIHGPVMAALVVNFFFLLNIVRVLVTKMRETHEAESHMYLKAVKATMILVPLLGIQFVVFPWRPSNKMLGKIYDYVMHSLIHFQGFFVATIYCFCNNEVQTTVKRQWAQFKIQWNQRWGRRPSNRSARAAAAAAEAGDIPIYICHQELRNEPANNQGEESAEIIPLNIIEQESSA
T1 sequence (looked up) 2: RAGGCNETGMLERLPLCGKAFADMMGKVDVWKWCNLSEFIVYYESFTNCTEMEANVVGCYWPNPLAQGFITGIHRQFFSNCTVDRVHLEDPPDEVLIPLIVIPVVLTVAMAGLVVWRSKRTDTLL


Biological target: T1, human amylin 3(a) receptor (human …)
Assay: cell-based or functional assay

Ratio hCT/hAmylin funct. (hCTR EC50 over hAmylin-R EC50)	hAmylin-R funct. EC50 (pM)	Binder
26.6	146	K([γGlu-C20 diacid])CNTATCATQRLAHFLRHSSPNFGAIPSSTNVGRNTY-NH2 (disulfide 2-7; N-terminus assumed; SMILES CC[C@H](C)[C@H](NC(=O)[C@H](C)NC(=O)CNC(=O)[C@H](Cc1ccccc1)NC(=O)[C@H](CC(N)=O)NC(=O)[C@@H]1CCCN1C(=O)[C@H](CO)NC(=O)[C@H](CO)NC(=O)[C@H](Cc1c[nH]cn1)NC(=O)[C@H](CCCNC(=N)N)NC(=O)[C@H](CC(C)C)NC(=O)[C@H](Cc1ccccc1)NC(=O)[C@H](Cc1c[nH]cn1)NC(=O)[C@H](C)NC(=O)[C@H](CC(C)C)NC(=O)[C@H](CCCNC(=N)N)NC(=O)[C@H](CCC(N)=O)NC(=O)[C@@H](NC(=O)[C@H](C)NC(=O)[C@@H]1CSSC[C@H](NC(=O)[C@@H](N)CCCCNC(=O)CC[C@H](NC(=O)CCCCCCCCCCCCCCCCCCC(=O)O)C(=O)O)C(=O)N[C@@H](CC(N)=O)C(=O)N[C@@H]([C@@H](C)O)C(=O)N[C@@H](C)C(=O)N[C@@H]([C@@H](C)O)C(=O)N1)[C@@H](C)O)C(=O)N1CCC[C@H]1C(=O)N[C@@H](CO)C(=O)N[C@@H](CO)C(=O)N[C@H](C(=O)N[C@@H](CC(N)=O)C(=O)N[C@H](C(=O)NCC(=O)N[C@@H](CCCNC(=N)N)C(=O)N[C@@H](CC(N)=O)C(=O)N[C@H](C(=O)N[C@@H](Cc1ccc(O)cc1)C(N)=O)[C@@H](C)O)C(C)C)[C@@H](C)O, also called compound 85)
17.9	40	K([γGlu-C20 diacid])CNTATCATQRLAHFLRHSSPNFGAIPSSTNVGSNTY-NH2 (disulfide 2-7; N-terminus assumed; SMILES CC[C@H](C)[C@H](NC(=O)[C@H](C)NC(=O)CNC(=O)[C@H](Cc1ccccc1)NC(=O)[C@H](CC(N)=O)NC(=O)[C@@H]1CCCN1C(=O)[C@H](CO)NC(=O)[C@H](CO)NC(=O)[C@H](Cc1c[nH]cn1)NC(=O)[C@H](CCCNC(=N)N)NC(=O)[C@H](CC(C)C)NC(=O)[C@H](Cc1ccccc1)NC(=O)[C@H](Cc1c[nH]cn1)NC(=O)[C@H](C)NC(=O)[C@H](CC(C)C)NC(=O)[C@H](CCCNC(=N)N)NC(=O)[C@H](CCC(N)=O)NC(=O)[C@@H](NC(=O)[C@H](C)NC(=O)[C@@H]1CSSC[C@H](NC(=O)[C@@H](N)CCCCNC(=O)CC[C@H](NC(=O)CCCCCCCCCCCCCCCCCCC(=O)O)C(=O)O)C(=O)N[C@@H](CC(N)=O)C(=O)N[C@@H]([C@@H](C)O)C(=O)N[C@@H](C)C(=O)N[C@@H]([C@@H](C)O)C(=O)N1)[C@@H](C)O)C(=O)N1CCC[C@H]1C(=O)N[C@@H](CO)C(=O)N[C@@H](CO)C(=O)N[C@H](C(=O)N[C@@H](CC(N)=O)C(=O)N[C@H](C(=O)NCC(=O)N[C@@H](CO)C(=O)N[C@@H](CC(N)=O)C(=O)N[C@H](C(=O)N[C@@H](Cc1ccc(O)cc1)C(N)=O)[C@@H](C)O)C(C)C)[C@@H](C)O, also called compound 70) [N^ε1-[(4S)-4-carboxy-4-(19-carboxynonadecanoylamino)butanoyl]-[His14,Arg17,Pro21,Pro27]-h-amylin]
20.1	27	K([γGlu-C20 diacid])CNTATCATQRLAHFLRHSSPNFGAIPSSTNVGSHTY-NH2 (disulfide 2-7; N-terminus assumed; SMILES CC[C@H](C)[C@H](NC(=O)[C@H](C)NC(=O)CNC(=O)[C@H](Cc1ccccc1)NC(=O)[C@H](CC(N)=O)NC(=O)[C@@H]1CCCN1C(=O)[C@H](CO)NC(=O)[C@H](CO)NC(=O)[C@H](Cc1c[nH]cn1)NC(=O)[C@H](CCCNC(=N)N)NC(=O)[C@H](CC(C)C)NC(=O)[C@H](Cc1ccccc1)NC(=O)[C@H](Cc1c[nH]cn1)NC(=O)[C@H](C)NC(=O)[C@H](CC(C)C)NC(=O)[C@H](CCCNC(=N)N)NC(=O)[C@H](CCC(N)=O)NC(=O)[C@@H](NC(=O)[C@H](C)NC(=O)[C@@H]1CSSC[C@H](NC(=O)[C@@H](N)CCCCNC(=O)CC[C@H](NC(=O)CCCCCCCCCCCCCCCCCCC(=O)O)C(=O)O)C(=O)N[C@@H](CC(N)=O)C(=O)N[C@@H]([C@@H](C)O)C(=O)N[C@@H](C)C(=O)N[C@@H]([C@@H](C)O)C(=O)N1)[C@@H](C)O)C(=O)N1CCC[C@H]1C(=O)N[C@@H](CO)C(=O)N[C@@H](CO)C(=O)N[C@H](C(=O)N[C@@H](CC(N)=O)C(=O)N[C@H](C(=O)NCC(=O)N[C@@H](CO)C(=O)N[C@@H](Cc1c[nH]cn1)C(=O)N[C@H](C(=O)N[C@@H](Cc1ccc(O)cc1)C(N)=O)[C@@H](C)O)C(C)C)[C@@H](C)O, also called compound 66)
27.8	404	K([γGlu-γGlu-C20 diacid])CNTATCATQRLAEFLRHSSPNFGAIPSSTNVGSRTY-NH2 (disulfide 2-7; N-terminus assumed; SMILES CC[C@H](C)[C@H](NC(=O)[C@H](C)NC(=O)CNC(=O)[C@H](Cc1ccccc1)NC(=O)[C@H](CC(N)=O)NC(=O)[C@@H]1CCCN1C(=O)[C@H](CO)NC(=O)[C@H](CO)NC(=O)[C@H](Cc1c[nH]cn1)NC(=O)[C@H](CCCNC(=N)N)NC(=O)[C@H](CC(C)C)NC(=O)[C@H](Cc1ccccc1)NC(=O)[C@H](CCC(=O)O)NC(=O)[C@H](C)NC(=O)[C@H](CC(C)C)NC(=O)[C@H](CCCNC(=N)N)NC(=O)[C@H](CCC(N)=O)NC(=O)[C@@H](NC(=O)[C@H](C)NC(=O)[C@@H]1CSSC[C@H](NC(=O)[C@@H](N)CCCCNC(=O)CC[C@H](NC(=O)CC[C@H](NC(=O)CCCCCCCCCCCCCCCCCCC(=O)O)C(=O)O)C(=O)O)C(=O)N[C@@H](CC(N)=O)C(=O)N[C@@H]([C@@H](C)O)C(=O)N[C@@H](C)C(=O)N[C@@H]([C@@H](C)O)C(=O)N1)[C@@H](C)O)C(=O)N1CCC[C@H]1C(=O)N[C@@H](CO)C(=O)N[C@@H](CO)C(=O)N[C@H](C(=O)N[C@@H](CC(N)=O)C(=O)N[C@H](C(=O)NCC(=O)N[C@@H](CO)C(=O)N[C@@H](CCCNC(=N)N)C(=O)N[C@H](C(=O)N[C@@H](Cc1ccc(O)cc1)C(N)=O)[C@@H](C)O)C(C)C)[C@@H](C)O, also called compound 89)
64.4	298	K([γGlu-γGlu-C20 diacid])CNTATCATQRLANFLRHSSPNFGAIPSSTNVGHNTY-NH2 (disulfide 2-7; N-terminus assumed; SMILES CC[C@H](C)[C@H](NC(=O)[C@H](C)NC(=O)CNC(=O)[C@H](Cc1ccccc1)NC(=O)[C@H](CC(N)=O)NC(=O)[C@@H]1CCCN1C(=O)[C@H](CO)NC(=O)[C@H](CO)NC(=O)[C@H](Cc1c[nH]cn1)NC(=O)[C@H](CCCNC(=N)N)NC(=O)[C@H](CC(C)C)NC(=O)[C@H](Cc1ccccc1)NC(=O)[C@H](CC(N)=O)NC(=O)[C@H](C)NC(=O)[C@H](CC(C)C)NC(=O)[C@H](CCCNC(=N)N)NC(=O)[C@H](CCC(N)=O)NC(=O)[C@@H](NC(=O)[C@H](C)NC(=O)[C@@H]1CSSC[C@H](NC(=O)[C@@H](N)CCCCNC(=O)CC[C@H](NC(=O)CC[C@H](NC(=O)CCCCCCCCCCCCCCCCCCC(=O)O)C(=O)O)C(=O)O)C(=O)N[C@@H](CC(N)=O)C(=O)N[C@@H]([C@@H](C)O)C(=O)N[C@@H](C)C(=O)N[C@@H]([C@@H](C)O)C(=O)N1)[C@@H](C)O)C(=O)N1CCC[C@H]1C(=O)N[C@@H](CO)C(=O)N[C@@H](CO)C(=O)N[C@H](C(=O)N[C@@H](CC(N)=O)C(=O)N[C@H](C(=O)NCC(=O)N[C@@H](Cc1c[nH]cn1)C(=O)N[C@@H](CC(N)=O)C(=O)N[C@H](C(=O)N[C@@H](Cc1ccc(O)cc1)C(N)=O)[C@@H](C)O)C(C)C)[C@@H](C)O, also called compound 86)
16.4	182	K([γGlu-γGlu-C20 diacid])CNTATCATQRLADFLRHSSPNFGAIPSSTNVGSDTY-NH2 (disulfide 2-7; N-terminus assumed; SMILES CC[C@H](C)[C@H](NC(=O)[C@H](C)NC(=O)CNC(=O)[C@H](Cc1ccccc1)NC(=O)[C@H](CC(N)=O)NC(=O)[C@@H]1CCCN1C(=O)[C@H](CO)NC(=O)[C@H](CO)NC(=O)[C@H](Cc1c[nH]cn1)NC(=O)[C@H](CCCNC(=N)N)NC(=O)[C@H](CC(C)C)NC(=O)[C@H](Cc1ccccc1)NC(=O)[C@H](CC(=O)O)NC(=O)[C@H](C)NC(=O)[C@H](CC(C)C)NC(=O)[C@H](CCCNC(=N)N)NC(=O)[C@H](CCC(N)=O)NC(=O)[C@@H](NC(=O)[C@H](C)NC(=O)[C@@H]1CSSC[C@H](NC(=O)[C@@H](N)CCCCNC(=O)CC[C@H](NC(=O)CC[C@H](NC(=O)CCCCCCCCCCCCCCCCCCC(=O)O)C(=O)O)C(=O)O)C(=O)N[C@@H](CC(N)=O)C(=O)N[C@@H]([C@@H](C)O)C(=O)N[C@@H](C)C(=O)N[C@@H]([C@@H](C)O)C(=O)N1)[C@@H](C)O)C(=O)N1CCC[C@H]1C(=O)N[C@@H](CO)C(=O)N[C@@H](CO)C(=O)N[C@H](C(=O)N[C@@H](CC(N)=O)C(=O)N[C@H](C(=O)NCC(=O)N[C@@H](CO)C(=O)N[C@@H](CC(=O)O)C(=O)N[C@H](C(=O)N[C@@H](Cc1ccc(O)cc1)C(N)=O)[C@@H](C)O)C(C)C)[C@@H](C)O, also called compound 2)
